Measured values published in US20190023770A1 (Genentech, published 2019).

Assays:
[1] = biological target: recombinant hemagglutinin H3 from influenza A virus A/Hong Kong/8/1968 (influenza A virus A/Hong Kong/8/1968, UniProt Q91MA7 17-530)
[2] = biological target: recombinant hemagglutinin H1 from influenza A virus A/NWS/1933 (influenza A virus A/NWS/1933 (printed …, UniProt P03454 18-528))

Row | Binder | EC50 [1] | EC50 [2]
1 | monoclonal antibody 36.89 (antibody, V domains shown) VH: QVQLVQSGAELKRPGASVKVSCKTSGYSFNNYGINWVRQAPGQGLEWMGWISAYTGNTHYAKNFEGRVTLTTDTSTSTAYMEVRSLRSDDSAVYFCARAMIQGVVTLYLRPGDYWGQGTLVTVSS VL: DIVMTQSPSTLSASVGDRVTITCRASQSIGNWLAWYQQKPGKAPKLLIYKVSTLESGVPSRFSGSGSGTEFTLTINSLQPDDFATYYCQRYTSNSQGFTFGQGTKLEIK | 1.32 nM | > 200 nM
2 | monoclonal antibody mAb9 01F3 (antibody, V domains shown) VH: QVQLVQSGAEVKQPGASVKVSCKASGYTFNAYYIHWVRQAPGQGLEWMGWINPNFGGTHYARKFQGRVTMTRDASINTAYMELDRLISDDTAVYYCVRWRAAAVIMDQFYKMDVWGQGTLVTVSS VL: SSELTQPPSASGTPGQRVTISCSGSTSNIGYNPVSWYQQVPGTAPKLLIYSNTERPSGVPDRFSGSKSGTSASLAISGLQSEDEADYYCAAWDDTLNGPVFGGGTKVTVL | 8.42 nM | > 200 nM
3 | monoclonal antibody mAb23 06C2 (antibody, V domains shown) VH: QVQLQESGPGLVKPSETLSLTCTVSGGLIGTGSYYWGWIRQTPGKGMEWIGSISYSGSTYYHPSLKSRVTISDDTSKNQLFLKLRSVTAADTAQYYCARYNWGIRYFDFWGRGTLVTVSS VL: DIQLTQSPLSPPVTLGQPASISCRSSQSLLYTDGFTYLSWYHQRPGQSPRRLIYKISNRDSGVPDRFSGSGSGTDFTLKISRVEAEDVGVYYCMQATHWPLTFGEGTKVEIK | 1.84 nM | > 200 nM
